In paper PMC3171513:

Columns and labels:
[1] = biological target: His-tagged wild-type cytochrome bc1 complex from Paracoccus denitrificans (Paracoccus denitrificans) (UniProt P05417)
[2] = biological target: wild-type cytochrome bc1 complex from Paracoccus denitrificans (Paracoccus denitrificans) (UniProt P05417)

- steady-state reduction of cytochrome c by bc1 complex with decylubiquinol, KM [1]: 3.4 µM
- steady-state reduction of cytochrome c by bc1 complex with decylubiquinol, kCAT [1]: 328 s⁻¹
- steady-state reduction of cytochrome c by bc1 complex with decylubiquinol, KM [2]: 2.3 µM
- steady-state reduction of cytochrome c by bc1 complex with decylubiquinol, kCAT [2]: 273 s⁻¹
Substance: horse heart cytochrome c (from UniProt P00004 1-105) (natural protein)
